Experimental data reported in paper PMC5861439 (Nucleic Acids Research, 2017).

Columns and labels:
Rtt109 = settings: ref [13–14],[21–22]; cited from earlier work
Asf1–H3:H4 complex = test: NMR 13C-HMQC; assay type: binding, Asf1 Saccharomyces cerevisiae; histones Xenopus laevis; settings: Rtt109 added to Asf1–H3:H4–Vps75_2; 50 mM sodium citrate pH 6.5, 150 mM NaCl, 5 mM BME, 850 MHz, 298 K
[1] = system: 15N-labeled H3 in the H3:H4 complex; test: NMR 15N-HSQC CSPs of 15N-labeled histone H3 in the H3:H4 complex; assay type: binding, Xenopus laevis; settings: Rtt109 added to Asf1–H3:H4 (15N-labeled H3); 50 mM sodium citrate pH 6.2, 150 mM NaCl, 5 mM BME, 600 MHz, 298 K

Row | Substance | acetyltransferase activity alone / activation of Rtt109 by chaperones (in words) (Rtt109) | Asf1 CSPs upon addition of Rtt109 in the presence of Vps75 (in words) (Asf1–H3:H4 complex) | competition with the H3 tail for Asf1 (in words) [1]
1 | Asf1: Saccharomyces cerevisiae Asf1 (2–169), histone-specific chaperone | strongly activated | – | –
2 | Vps75_2: Vps75 homodimer, histone chaperone (Saccharomyces cerevisiae) | strongly activated | – | –
3 | Rtt109: full-length Saccharomyces cerevisiae Rtt109, fungal histone acetyltransferase | very low acetyltransferase activity | large Asf1 CSPs | can out-compete the H3 tail for the same interaction surface on Asf1
